Experimental data from publication doi:10.1101/2025.06.05.658000.
Where two headings read alike, the source gives them in different places.

Legend:
Experiment in all cases: ELISA
[1] = molecular target: HLA-DR (DRA1*01:01 / DRB1*13:02), soluble knob-into-hole Fc heterodimer (human)
[2] = molecular target: HLA-DR (DRA1*01:01 / DRB1*13:01), soluble knob-into-hole Fc heterodimer (human)
[3] = molecular target: HLA-DR (DRA1*01:01 / DRB1*13:02), soluble knob-into-hole Fc heterodimer (human); remark: listed apart in the source
[4] = molecular target: HLA-DR (DRA1*01:01 / DRB1*13:01), soluble knob-into-hole Fc heterodimer (human); remark: listed apart in the source
[5] = molecular target: The majority of HLA-DR
[6] = molecular target: HLA-DR (DRA1*01:01 / DRB1*01:01), soluble knob-into-hole Fc heterodimer (human)

| affinity [1] | affinity [2] | affinity [3] | affinity [4] | affinity [5] | Substance | IC50 [6] |
| --- | --- | --- | --- | --- | --- | --- |
| 4 µM | 300 nM | < 300 nM | < 300 nM | 0 to 25 nM | biotin-labeled human Class II-associated Invariant Chain Peptide (Bio-CLIP) |  |
|  |  |  |  |  | SARS-CoV-2 RBD peptide RBD487-501 (from UniProt P0DTC2 487-501) | 293 nM |
|  |  |  |  |  | SARS-CoV-2 RBD peptide RBD491-505 (from UniProt P0DTC2 491-505) | 152 nM |
